T1: mouse CLDN18.2 (mouse, UniProt P56857 10-264, Expressed on HEK293T cells as a fusion to GFP. The GFP is left out of the letters.)
T1 construct: also called mouse CLDN18.2 fused to GFP; not shown: The GFP fused to mouse CLDN18.2, and any linker to it
T1 chain: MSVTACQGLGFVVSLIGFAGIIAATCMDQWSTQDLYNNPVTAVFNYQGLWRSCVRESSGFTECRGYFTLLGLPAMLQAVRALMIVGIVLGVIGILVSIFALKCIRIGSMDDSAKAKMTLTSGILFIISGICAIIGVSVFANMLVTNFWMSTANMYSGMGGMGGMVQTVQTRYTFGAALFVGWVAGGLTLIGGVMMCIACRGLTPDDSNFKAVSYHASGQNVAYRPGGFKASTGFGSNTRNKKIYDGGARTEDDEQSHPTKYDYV

B1: Ab 376 (antibody, V domains shown)
VH: DVKLVESGGGLVKPGGSLKLSCAASGFTFSSYTMSWVRQTPEKRLYWVATISSGVSYTYYPDSVKGRFTISRDNAKNTLYLQMSSLKSEDTAMYYCTRLTKGNAMDYWGQGTSVTVSS
VL: DIVMTQSPSSLTVTAGEKVTMSCKSSQSLLNSGNQKNYLTWYQQKPGQPPKLLIYWASTRESGVPDRFTGSGSGTGFTLTISSVQAEDLAVYYCQNDYSYPFTFGAGTKLELK
B2: Ab 384 (antibody, V domains shown)
VH: QVQLQQSGAELARPGASVKLSCKASDYTFTSYVISWVKQRTGQGLEWIGEIYPRNGNTYYNEKFKGKATLTADKSSSTAYMELRSLTSEDSAVYFCARSYYGNSFAYWGQGTLVTVSA
VL: DIVMTQSPSSLTVTAGEKVTMSCKSSQSLLNSGNQKNYLTWYQQRPGQPPKLLIYWASTRESGVPDRFTGSGSGTDFTLTISSVQAEDLAVYCCQNNYYYPFTFGGGTKLGIK
B3: Ab 360 (antibody, V domains shown)
VH: VVQLQQSGPELVKPGASVKMSCKASGYTFTSYLMHWVRQKPGLGLDWIGYINPYNDGTNYNAKFIDKATLTSDKTSSTAYMELSSLTSEDSAIYYCTRGDYWGQGTSVTVSS
VL: DIVMTQSPSSLAVTAGEQVTMSCKSSQSLLNSGNQKNYLTWYQQKPGQPPKLLIYWASIRQSGVPDRFTGSGSGTDFTLTISSVQAEDLAVYYCLNDYGFPLTFGAGTKLELK
notes: also called 360-Chim
B4: 02-0307-5h antibody (antibody, V domains shown)
VH: EVQLLESGGGLVQPGGSLRLSCAASGFTFSSYTMSWVRQAPGKGLEWVATIIIGGSYTYYADSVKGRFTISRDNSKNTLYLQMNSLRAEDTAVYYCTRLVKGNAMDYWGQGTLVTVSS
VL: DIVMTQSPDSLAVSLGERVTMNCKSSQSLLQSGNQKNYLSWYQQKPGQPPKLLFYWASTRESGVPDRFSGSGSGTDFTLTISSVQAEDVAVYYCQNDYSYPFTFGQGTKLEIK
notes: also called 02-h1F06-5h
B5: HuAb360-6 (antibody, V domains shown)
VH: QVQLVQSGAEVKKPGASVKMSCKASGYTFTSYLMHWVRQAPGQGLEWIGYINPYNDGTNYAQKFQGRATLTSDKSTSTAYMELSSLRSEDTAVYYCTRGDYWGQGTLVTVSS
VL: DIVMTQSPDSLAVSLGERVTMNCKSSQSLLNSGNQKNYLTWYQQKPGQPPKLLIYWASIRQSGVPDRFSGSGSGTDFTLTISSVQAEDVAVYYCLNDYGFPLTFGQGTKLEIK
B6: 02-0358-11h antibody (antibody, V domains shown)
VH: EVQLVESGGGLVQPGGSLRLSCAVSGFTFSSFGMHWVRQAPGKGLEWVAYISSGTTNIYYADSVKGRFTVSRDNAKNSLYLQMNSLRAEDTAVYYCVRSGYYGSSLDYWGQGTLVTVSS
VL: DIVMTQSPDSLAVSLGERVTMNCKSSQSLFSSGNQRNYLTWYQQKPGQPPKLLIYWASTRESGVPDRFSGSGSGTDFTLTISSVQAEDVAVYYCQNVYIYPLTFGQGTKLEIK
B7: 02-0358-8h antibody (antibody, V domains shown)
VH: EVQLVESGGGLVQPGGSLRLSCAVSGFTFSSFGMHWVRQAPGKGLEWVAYISSGTTNIYYADSVKGRFTVSRDNAKNSLYLQMNSLRAEDTAVYYCVRSGYYGQSLDYWGQGTLVTVSS
VL: DIVMTQSPDSLAVSLGERVTMNCKSSQSLFQSGNQRNYLTWYQQKPGQPPKLLIYWASTRESGVPDRFSGSGSGTDFTLTISSVQAEDVAVYYCQNVYIYPLTFGQGTKLEIK
B8: 02-0307-8h antibody (antibody, V domains shown)
VH: EVQLLESGGGLVQPGGSLRLSCAASGFTFSSYTMSWVRQAPGKGLEWVATIIIGGSYTYYADSVKGRFTISRDNSKNTLYLQMNSLRAEDTAVYYCTRLVKGQAMDYWGQGTLVTVSS
VL: DIVMTQSPDSLAVSLGERVTMNCKSSQSLLQSGNQKNYLSWYQQKPGQPPKLLFYWASTRESGVPDRFSGSGSGTDFTLTISSVQAEDVAVYYCQNDYSYPFTFGQGTKLEIK
notes: also called 02-h1F06-8h
B9: 02-0307-7h antibody (antibody, V domains shown)
VH: EVQLLESGGGLVQPGGSLRLSCAASGFTFSSYTMSWVRQAPGKGLEWVATIIIGGSYTYYADSVKGRFTISRDNSKNTLYLQMNSLRAEDTAVYYCTRLVKGQAMDYWGQGTLVTVSS
VL: DIVMTQSPDSLAVSLGERVTMNCKSSQSLLNSGNQKNYLSWYQQKPGQPPKLLFYWASTRESGVPDRFSGSGSGTDFTLTISSVQAEDVAVYYCQNDYSYPFTFGQGTKLEIK
notes: also called 02-h1F06-7h
B10: 02-0358-6h antibody (antibody, V domains shown)
VH: EVQLVESGGGLVQPGGSLRLSCAVSGFTFSSFGMHWVRQAPGKGLEWVAYISSGTTNIYYADSVKGRFTVSRDNAKNSLYLQMNSLRAEDTAVYYCVRSGYYGQSLDYWGQGTLVTVSS
VL: DIVMTQSPDSLAVSLGERVTMNCKSSQSLFNSGNQRNYLTWYQQKPGQPPKLLIYWASTRESGVPDRFSGSGSGTDFTLTISSVQAEDVAVYYCQNVYIYPLTFGQGTKLEIK
B11: 02-0358-9h antibody (antibody, V domains shown)
VH: EVQLVESGGGLVQPGGSLRLSCAVSGFTFSSFGMHWVRQAPGKGLEWVAYISSGTTNIYYADSVKGRFTVSRDNAKNSLYLQMNSLRAEDTAVYYCVRSGYYGQSLDYWGQGTLVTVSS
VL: DIVMTQSPDSLAVSLGERVTMNCKSSQSLFSSGNQRNYLTWYQQKPGQPPKLLIYWASTRESGVPDRFSGSGSGTDFTLTISSVQAEDVAVYYCQNVYIYPLTFGQGTKLEIK
B12: 02-0358-7h antibody (antibody, V domains shown)
VH: EVQLVESGGGLVQPGGSLRLSCAVSGFTFSSFGMHWVRQAPGKGLEWVAYISSGTTNIYYADSVKGRFTVSRDNAKNSLYLQMNSLRAEDTAVYYCVRSGYYGSSLDYWGQGTLVTVSS
VL: DIVMTQSPDSLAVSLGERVTMNCKSSQSLFNSGNQRNYLTWYQQKPGQPPKLLIYWASTRESGVPDRFSGSGSGTDFTLTISSVQAEDVAVYYCQNVYIYPLTFGQGTKLEIK
B13: 02-0307-10h antibody (antibody, V domains shown)
VH: EVQLLESGGGLVQPGGSLRLSCAASGFTFSSYTMSWVRQAPGKGLEWVATIIIGGSYTYYADSVKGRFTISRDNSKNTLYLQMNSLRAEDTAVYYCTRLVKGSAMDYWGQGTLVTVSS
VL: DIVMTQSPDSLAVSLGERVTMNCKSSQSLLNSGNQKNYLSWYQQKPGQPPKLLFYWASTRESGVPDRFSGSGSGTDFTLTISSVQAEDVAVYYCQNDYSYPFTFGQGTKLEIK
notes: also called 02-h1F06-10h
B14: 02-0307-11h antibody (antibody, V domains shown)
VH: EVQLLESGGGLVQPGGSLRLSCAASGFTFSSYTMSWVRQAPGKGLEWVATIIIGGSYTYYADSVKGRFTISRDNSKNTLYLQMNSLRAEDTAVYYCTRLVKGSAMDYWGQGTLVTVSS
VL: DIVMTQSPDSLAVSLGERVTMNCKSSQSLLQSGNQKNYLSWYQQKPGQPPKLLFYWASTRESGVPDRFSGSGSGTDFTLTISSVQAEDVAVYYCQNDYSYPFTFGQGTKLEIK
notes: also called 02-h1F06-11h
B15: 02-0358-10h antibody (antibody, V domains shown)
VH: EVQLVESGGGLVQPGGSLRLSCAVSGFTFSSFGMHWVRQAPGKGLEWVAYISSGTTNIYYADSVKGRFTVSRDNAKNSLYLQMNSLRAEDTAVYYCVRSGYYGSSLDYWGQGTLVTVSS
VL: DIVMTQSPDSLAVSLGERVTMNCKSSQSLFQSGNQRNYLTWYQQKPGQPPKLLIYWASTRESGVPDRFSGSGSGTDFTLTISSVQAEDVAVYYCQNVYIYPLTFGQGTKLEIK
B16: 02-0307-12h antibody (antibody, V domains shown)
VH: EVQLLESGGGLVQPGGSLRLSCAASGFTFSSYTMSWVRQAPGKGLEWVATIIIGGSYTYYADSVKGRFTISRDNSKNTLYLQMNSLRAEDTAVYYCTRLVKGSAMDYWGQGTLVTVSS
VL: DIVMTQSPDSLAVSLGERVTMNCKSSQSLLSSGNQKNYLSWYQQKPGQPPKLLFYWASTRESGVPDRFSGSGSGTDFTLTISSVQAEDVAVYYCQNDYSYPFTFGQGTKLEIK
notes: also called 02-h1F06-12h
B17: 02-0307-9h antibody (antibody, V domains shown)
VH: EVQLLESGGGLVQPGGSLRLSCAASGFTFSSYTMSWVRQAPGKGLEWVATIIIGGSYTYYADSVKGRFTISRDNSKNTLYLQMNSLRAEDTAVYYCTRLVKGQAMDYWGQGTLVTVSS
VL: DIVMTQSPDSLAVSLGERVTMNCKSSQSLLSSGNQKNYLSWYQQKPGQPPKLLFYWASTRESGVPDRFSGSGSGTDFTLTISSVQAEDVAVYYCQNDYSYPFTFGQGTKLEIK
notes: also called 02-h1F06-9h
B18: 02-0358-4h antibody (antibody, V domains shown)
VH: EVQLVESGGGLVQPGGSLRLSCAVSGFTFSSFGMHWVRQAPGKGLEWVAYISSGTTNIYYADSVKGRFTVSRDNAKNSLYLQMNSLRAEDTAVYYCVRSGYYGNSLDYWGQGTLVTVSS
VL: DIVMTQSPDSLAVSLGERVTMNCKSSQSLFQSGNQRNYLTWYQQKPGQPPKLLIYWASTRESGVPDRFSGSGSGTDFTLTISSVQAEDVAVYYCQNVYIYPLTFGQGTKLEIK

Legend:
mouse CLDN18.2 = target: T1, mouse CLDN18.2; test: FACS dose curve, AF647-labelled IgG on HEK293T mouse CLDN18.2 MP cells
[1] = target: T2, human Claudin-18.2 (CLDN18.2) (human); test: FACS, 1.5 ug antibody, HEK293T-CLDN18.2 C12 clone cells
T2 construct: On cells: fused to GFP in engineered HEK293T cells (clone C12), endogenous in HUPT4 and SNU601 cells; also called human CLDN18.2

[2] = target: T2, human Claudin-18.2 (CLDN18.2); test: FACS, 1.5 ug antibody, HUPT4 cells (endogenous CLDN18.2)
Procedure: FACS assays were carried out to determine relative antigen binding strengths of the humanized antibodies (at either 1.5 μg or 0.3 μg) for binding to CLDN18.2 as expressed by the indicated cancer cell lines.

[3] = target: T2, human Claudin-18.2 (CLDN18.2); test: flow cytometry; HUPT4 over M202 [Cont.]
Procedure: (§1) The samples were then measured by Intellicyt® iQue Advanced Flow Cytometry Platform.

[4] = target: T2, human Claudin-18.2 (CLDN18.2); test: flow cytometry; HEK293T CLDN18.2 over HEK293T parental [Cont.]
Procedure: as §1

Binder	binding result (mouse CLDN18.2)	FACS signal (relative antigen binding strength) [1]	FACS signal (relative antigen binding strength) [2]	ratio native [3]	ratio OE [4]
B1	no binding (tested: 0.32 nM to 1000 nM)	–	–	–	–
B2	no binding (tested: 0.32 nM to 1000 nM)	–	–	–	–
B3	–	117000	26200	–	–
B4	–	–	–	121	408
B5	–	159000	34600	–	–
B6	–	–	–	88.8	456
B7	–	–	–	57.9	229
B8	–	–	–	12.2	166
B9	–	–	–	22.5	326
B10	–	–	–	79.9	435
B11	–	–	–	93.4	453
B12	–	–	–	94.1	449
B13	–	–	–	6.42	202
B14	–	–	–	1.52	40
B15	–	–	–	54.1	274
B16	–	–	–	9.89	183
B17	–	–	–	45.1	273
B18	–	–	–	94	575

Reference: patent US11834499 (University of California, dated 2023)
